Reference: the supplement of paper PMC9112550, “Optimization of the antimicrobial peptide Bac7 by deep mutational scanning” (BMC Biology, 2022)

Tested on: Escherichia coli TOP10
Experiment: shrunken log2 fold change of peptide-encoding DNA abundance (4.5 h post-induction vs induction); higher = less antimicrobial activity (less host growth inhibition)
Conditions: time post-induction: 4.5 h; library: site-saturation at positions 5, 18, 19, 20
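Also: peptides expressed intracellularly from a pBAD plasmid library in pooled LB shake-flask culture, induced with 0.3% L-arabinose, DNA abundance read by NGS, three biological replicates, DESeq2 with apeglm shrinkage.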

Sequence | shrunken log2 fold change
RRIRMRPPRLPRPRPRPWTKPRP | -0.0384
RRIRHRPPRLPRPRPRPRIKPRP | -0.0701
RRIRVRPPRLPRPRPRPTKKPRP | -0.0633
RRIRARPPRLPRPRPRPKLCPRP | 0.225
RRIRKRPPRLPRPRPRPTVSPRP | 0.099
RRIRPRPPRLPRPRPRPDFPPRP | -0.0174
RRIRDRPPRLPRPRPRPVQEPRP | -0.0575
RRIRQRPPRLPRPRPRPLQKPRP | -0.0062
RRIRIRPPRLPRPRPRPDLYPRP | -0.408
RRIRTRPPRLPRPRPRPTETPRP | 0.171
RRIRKRPPRLPRPRPRPRKLPRP | 0.0707
RRIRMRPPRLPRPRPRPGLQPRP | 4.5
RRIRVRPPRLPRPRPRPSCQPRP | -0.643
RRIRSRPPRLPRPRPRPEWFPRP | -0.287
RRIRERPPRLPRPRPRPCNRPRP | -0.0134
RRIRFRPPRLPRPRPRPDAYPRP | -0.147
RRIRPRPPRLPRPRPRPRLQPRP | 0.176
RRIRTRPPRLPRPRPRPHWDPRP | -0.245
RRIRIRPPRLPRPRPRPMNMPRP | -0.375
RRIRTRPPRLPRPRPRPHNWPRP | 0.0661
RRIRRRPPRLPRPRPRPTNCPRP | -0.197
RRIRKRPPRLPRPRPRPASGPRP | 0.591
RRIRSRPPRLPRPRPRPDQGPRP | -0.196
RRIRCRPPRLPRPRPRPNANPRP | -0.353
RRIRMRPPRLPRPRPRPPCVPRP | 0.389

Sequence | shrunken log2 fold change
RRIRLRPPRLPRPRPRPFHIPRP | -0.292
RRIRPRPPRLPRPRPRPVLLPRP | 0.00267
RRIRHRPPRLPRPRPRPHKAPRP | -0.31
RRIRSRPPRLPRPRPRPNAEPRP | 0.572
RRIRVRPPRLPRPRPRPWHYPRP | -0.647
RRIRFRPPRLPRPRPRPVYMPRP | -0.969
RRIRVRPPRLPRPRPRPSQQPRP | -0.116
RRIRTRPPRLPRPRPRPCRPPRP | -0.415
RRIRERPPRLPRPRPRPACCPRP | 0.0931
RRIRLRPPRLPRPRPRPFRHPRP | -0.322
RRIRKRPPRLPRPRPRPLMCPRP | -0.122
RRIRYRPPRLPRPRPRPCYYPRP | -1.03
RRIRGRPPRLPRPRPRPPWWPRP | 0.953
RRIRDRPPRLPRPRPRPSVVPRP | -0.0127
RRIRFRPPRLPRPRPRPHKDPRP | -0.709
RRIRCRPPRLPRPRPRPPFVPRP | 0.145
RRIRGRPPRLPRPRPRPPKHPRP | 0.567
RRIRARPPRLPRPRPRPVEDPRP | 0.0532
RRIRARPPRLPRPRPRPWVGPRP | 0.271
RRIRCRPPRLPRPRPRPDTRPRP | -0.0118
RRIRPRPPRLPRPRPRPYLHPRP | -0.471
RRIRTRPPRLPRPRPRPLGRPRP | 2.94
RRIRWRPPRLPRPRPRPFGKPRP | -0.578
RRIRNRPPRLPRPRPRPELCPRP | 0.232
RRIRLRPPRLPRPRPRPVMKPRP | -0.13

Sequence | shrunken log2 fold change
RRIRLRPPRLPRPRPRPSDDPRP | -0.34
RRIRGRPPRLPRPRPRPRFLPRP | 0.448
RRIRTRPPRLPRPRPRPTNGPRP | -0.0801
RRIRPRPPRLPRPRPRPCVYPRP | -0.22
RRIRDRPPRLPRPRPRPGHCPRP | -0.0141
RRIRSRPPRLPRPRPRPFVIPRP | -0.206
RRIRCRPPRLPRPRPRPICEPRP | -0.178
RRIRPRPPRLPRPRPRPTCWPRP | 0.349
RRIRSRPPRLPRPRPRPKLDPRP | -0.037
RRIRIRPPRLPRPRPRPPYKPRP | -0.386
RRIRGRPPRLPRPRPRPENYPRP | -0.144
RRIRVRPPRLPRPRPRPTFYPRP | -0.145
RRIRMRPPRLPRPRPRPENYPRP | -0.0708
RRIRSRPPRLPRPRPRPMVCPRP | 0.188
RRIRKRPPRLPRPRPRPYEGPRP | -0.0017
RRIRMRPPRLPRPRPRPILNPRP | -0.248
RRIRARPPRLPRPRPRPFKSPRP | -0.549
RRIRVRPPRLPRPRPRPFMEPRP | -0.265
RRIRGRPPRLPRPRPRPLDHPRP | 0.178
RRIRIRPPRLPRPRPRPILDPRP | -0.797
RRIRTRPPRLPRPRPRPAHVPRP | 0.0505
RRIRLRPPRLPRPRPRPIYIPRP | -1.1
RRIRSRPPRLPRPRPRPKNGPRP | -0.105
RRIRCRPPRLPRPRPRPILRPRP | 0.103
RRIRERPPRLPRPRPRPDQIPRP | -0.084

Sequence | shrunken log2 fold change
RRIRHRPPRLPRPRPRPITQPRP | -0.0204
RRIRSRPPRLPRPRPRPREDPRP | 0.432
RRIRVRPPRLPRPRPRPANGPRP | 0.136
RRIRKRPPRLPRPRPRPQYLPRP | -0.0967
RRIRTRPPRLPRPRPRPANIPRP | -0.439
RRIRYRPPRLPRPRPRPGCKPRP | -0.0843
RRIRDRPPRLPRPRPRPCTNPRP | -0.0463
RRIRHRPPRLPRPRPRPANQPRP | -0.0712
RRIRFRPPRLPRPRPRPDRAPRP | 0.131
RRIRCRPPRLPRPRPRPGEYPRP | 0.0239
RRIRLRPPRLPRPRPRPIGEPRP | -0.169
RRIRARPPRLPRPRPRPPCCPRP | 0.571
RRIRSRPPRLPRPRPRPYLFPRP | -0.676
RRIRARPPRLPRPRPRPELWPRP | 1.3
RRIRERPPRLPRPRPRPQWWPRP | 0.273
RRIRTRPPRLPRPRPRPYQCPRP | -0.0724
RRIRWRPPRLPRPRPRPELNPRP | 0.259
RRIRGRPPRLPRPRPRPQKWPRP | 0.0681
RRIRRRPPRLPRPRPRPNRVPRP | -0.0133
RRIRYRPPRLPRPRPRPCRPPRP | -0.0124
RRIRHRPPRLPRPRPRPDVAPRP | -0.00146
RRIRTRPPRLPRPRPRPEGEPRP | -0.0398
RRIRMRPPRLPRPRPRPAHVPRP | 0.176
RRIRSRPPRLPRPRPRPFMDPRP | -0.519
RRIRQRPPRLPRPRPRPLYKPRP | -1.34

Sequence | shrunken log2 fold change
RRIRMRPPRLPRPRPRPLEIPRP | 0.103
RRIRVRPPRLPRPRPRPVLPPRP | 0.0268
RRIRDRPPRLPRPRPRPFDFPRP | 0.122
RRIRPRPPRLPRPRPRPFPLPRP | -0.332
RRIRWRPPRLPRPRPRPVYVPRP | -0.231
RRIRARPPRLPRPRPRPVRNPRP | 0.142
RRIRRRPPRLPRPRPRPTQEPRP | 0.212
RRIRRRPPRLPRPRPRPPRLPRP | 1.1
RRIRWRPPRLPRPRPRPHENPRP | 0.0568
RRIRRRPPRLPRPRPRPGEQPRP | 0.301
RRIRWRPPRLPRPRPRPKVKPRP | 0.49
RRIRWRPPRLPRPRPRPRCWPRP | 0.616
RRIRERPPRLPRPRPRPCGLPRP | -0.0273
RRIRIRPPRLPRPRPRPTSRPRP | -0.0459
RRIRERPPRLPRPRPRPDFIPRP | -0.092
RRIRRRPPRLPRPRPRPQERPRP | -0.0784
RRIRWRPPRLPRPRPRPRQMPRP | 0.0196
RRIRDRPPRLPRPRPRPFKVPRP | -0.0463
RRIRERPPRLPRPRPRPFDMPRP | -0.0448
RRIRWRPPRLPRPRPRPPWAPRP | 0.452
RRIRDRPPRLPRPRPRPGAFPRP | 0.357
RRIRTRPPRLPRPRPRPNAQPRP | 0.5
RRIRFRPPRLPRPRPRPLIVPRP | -0.473
RRIRVRPPRLPRPRPRPWFIPRP | -0.329
RRIRNRPPRLPRPRPRPWIRPRP | -0.399
